From patent US20260070940A1 (Hoffmann-La Roche, published 2026)
Where “and” joins values, the source holds several entries; their conditions need not be identical. Equal values may be shown once.

B1: P11A2 aVH-Fc, bivalent (PG-LALA) (Fc fusion)
heavy: EVQLVESGGGLVQPGGSLRLSCAASSFNIKDTYIGWVRRAPGKGTELVAEIACHEGTTRYADSVKGRFTISCDTSKNTAYLQMNSLRAEDTAVYYCANTEYDDIFDYWGQGTTVTVSSGGGGSGGGGSDKTHTCPPCPAPEAAGGPSVFLFPPKPKDTLMISRTPEVTCVVVDVSHEDPEVKFNWYVDGVEVHNAKTKPREEQYNSTYRVVSVLTVLHQDWLNGKEYKCKVSNKALGAPIEKTISKAKGQPREPQVYTLPPSRDELTKNQVSLTCLVKGFYPSDIAVEWESNGQPENNYKTTPPVLDSDGSFFLYSKLTVDKSRWQQGNVFSCSVMHEALHNHYTQKSLSLSPGK
B2: TGN1412 IgG (antibody, V domains shown)
VH: QVQLVQSGAEVKKPGASVKVSCKASGYTFTSYYIHWVRQAPGQGLEWIGCIYPGNVNTNYNEKFKDRATLTVDTSISTAYMELSRLRSDDTAVYFCTRSHYGLDWNFDVWGQGTTVTVSS
VL: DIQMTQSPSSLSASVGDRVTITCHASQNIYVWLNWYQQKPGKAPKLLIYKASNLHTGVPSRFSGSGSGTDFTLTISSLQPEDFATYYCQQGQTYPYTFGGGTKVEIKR

Assays:
[1] = target: T1, murine LAG3-Fc antigen (R&D Systems, 3328-L3-050) (murine, UniProt Q61790 24-442); test: ELISA, murine LAG3-Fc
T1 construct: Bought
T1 sequence (looked up): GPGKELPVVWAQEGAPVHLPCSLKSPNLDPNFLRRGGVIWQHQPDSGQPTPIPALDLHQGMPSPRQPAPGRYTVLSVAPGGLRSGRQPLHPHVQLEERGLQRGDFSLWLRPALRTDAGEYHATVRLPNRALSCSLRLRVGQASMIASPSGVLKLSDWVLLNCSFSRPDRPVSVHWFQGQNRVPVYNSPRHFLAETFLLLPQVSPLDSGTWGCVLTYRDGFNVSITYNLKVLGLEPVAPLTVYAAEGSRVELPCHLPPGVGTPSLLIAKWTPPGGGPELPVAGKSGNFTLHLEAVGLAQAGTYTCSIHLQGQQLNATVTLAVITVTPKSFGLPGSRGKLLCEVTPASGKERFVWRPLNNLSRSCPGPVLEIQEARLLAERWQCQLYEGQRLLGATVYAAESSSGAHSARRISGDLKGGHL

[2] = target: T2, human LAG3 on recombinant CHO cells (human, UniProt P18627 23-525); test: cell ELISA, CHO-LAG3
T2 construct: whole, on cells; also called Lag3 cells
T2 sequence (looked up): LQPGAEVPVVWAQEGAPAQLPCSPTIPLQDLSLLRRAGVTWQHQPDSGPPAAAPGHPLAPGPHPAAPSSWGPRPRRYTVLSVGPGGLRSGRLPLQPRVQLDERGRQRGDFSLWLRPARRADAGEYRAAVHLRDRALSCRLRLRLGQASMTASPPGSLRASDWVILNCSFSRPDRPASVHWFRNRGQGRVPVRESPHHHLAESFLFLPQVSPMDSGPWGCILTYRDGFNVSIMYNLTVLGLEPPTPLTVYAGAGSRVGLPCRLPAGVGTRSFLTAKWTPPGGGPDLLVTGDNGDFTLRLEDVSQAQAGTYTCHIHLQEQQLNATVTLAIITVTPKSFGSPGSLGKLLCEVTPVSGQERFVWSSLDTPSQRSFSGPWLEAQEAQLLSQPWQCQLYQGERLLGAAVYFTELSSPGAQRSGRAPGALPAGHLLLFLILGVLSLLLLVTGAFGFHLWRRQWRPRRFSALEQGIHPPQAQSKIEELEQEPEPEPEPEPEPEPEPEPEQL

[3] = target: T3, recombinant human LAG3 Fc Chimera Protein (R&D Systems, 2319-L3) (human, UniProt P18627 23-450); test: ELISA, coated LAG3 Fc
T3 construct: Bought
T3 sequence (looked up): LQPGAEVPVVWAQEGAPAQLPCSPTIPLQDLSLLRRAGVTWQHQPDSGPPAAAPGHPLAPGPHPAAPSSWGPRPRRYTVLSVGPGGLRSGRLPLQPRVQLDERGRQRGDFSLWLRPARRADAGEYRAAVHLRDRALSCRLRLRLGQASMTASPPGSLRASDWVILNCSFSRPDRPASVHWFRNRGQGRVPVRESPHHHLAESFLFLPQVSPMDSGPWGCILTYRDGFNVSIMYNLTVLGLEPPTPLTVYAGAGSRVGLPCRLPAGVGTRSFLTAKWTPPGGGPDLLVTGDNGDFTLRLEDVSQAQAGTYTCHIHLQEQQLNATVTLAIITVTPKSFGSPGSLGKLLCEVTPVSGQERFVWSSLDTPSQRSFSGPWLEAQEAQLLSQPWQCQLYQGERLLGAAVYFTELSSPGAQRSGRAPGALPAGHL

[4] = target: T4, soluble human Lag3-IgG1-Fc with biotinylated C-terminal Avi-tag (human, biotin on the Avi-tag); test: A375 MHCII competition ELISA
T4 construct: Lag3 ECD, IEGRMD linker, IgG1 Fc, Avi-tag; also called LAG3-Fc-avi; biotinylated LAG3-Fc

[5] = target: T3, recombinant human LAG3 Fc Chimera …; test: SPR, captured aVH-Fc, LAG3 Fc analyte
[6] = target: T4, soluble human Lag3-IgG1-Fc with …; test: A375 MHCII competition ELISA, 3 ug/ml
[7] = target: T3, recombinant human LAG3 Fc Chimera …; test: SPR, captured aVH-Fc, LAG3 Fc analyte; poor fit
[8] = target: T5, full-length human CD28 with N-terminal SNAP tag on transfected Hek293 cells (human, UniProt P10747 19-220, SNAP tag labelled with terbium); test: FRET competition, unlabelled against d2-TGN1412 on CD28-SNAP cells; 95% CI in brackets
T5 construct: whole, on cells; also called hu CD28-SNAP

[9] = target: T5, full-length human CD28 with N-terminal …; test: FRET competition on cells with terbium-labelled hu CD28-SNAP; competitor d2-labelled TGN1412 (0.15 nM), unlabelled TGN1412 IgG titrated

Row | Binder | binding result [1] | EC50 [2] | OD max [2] | OD max [3] | IC50 [4] | t½ [5] | % Inhibition [6] | koff [7] | Ki [8] | IC50 (read off the curve) [9]
1 | B1 | no binding | 0.0169 µg/mL and 0.2 nM | 1.2 | 1.3 | 0.0903 µg/mL and 1.2 nM | 2.4 min | 92.4% | 0.0048 s⁻¹ |  | 
2 | B2 |  |  |  |  |  |  |  |  | 280 pM | ~600 pM
